Article PMC5656003

System: O=[N+]([O-])c1ccc(O[C@@H]2O[C@H](CO)[C@@H](O)[C@H](O)[C@H]2O)cc1
Assay: pNP release, initial-rate kinetics
Type: biochemical, Bacteroides ovatus

Row | Substance | Km | kcat | kcat/Km
1 | BACOVA_02738 (GH3) (Bacteroides ovatus) | 2530 ± 130 µM | 0.212 ± 0.004 s⁻¹ | 83.8 M⁻¹ s⁻¹
2 | BoGH3MLG (Bacteroides ovatus) | 2950 ± 140 µM | 59.5 ± 1.46 s⁻¹ | 20200 M⁻¹ s⁻¹
